These results are taken from patent publication US20220259281A1 (SHATTUCK LABS, published 2022).

Assay [1] has as its target anti-human PD-1 antibody. The assay is described as follows: MSD dual binding assay; Coat: anti-hPD1, Detect: anti-hOX40L; 3-fold dilution series drawn as bars. The protocol:
Concentrated, de-salted culture supernatant was prepared as follows: 40 million Jurkat parental cells, Jurkat cells expressing human PD-1-Fc-4-1BBL chimeric protein (Jurkat/hPD-1-Fc-4-1BBL), Jurkat cells expressing human PD-1-Fc-OX40L chimeric protein (Jurkat/hPD-1-Fc-OX40L), or Jurkat cells expressing human CSF1R-Fc-CD40L chimeric protein (Jurkat/hCSF1R-Fc-CD40L) were cultured in 60 mL of media for 48 hours. After this, the media were harvested and concentrated 50-75× using AMICON-15 50K columns. Concentrated supernatant was desalted over a ZEBA desalting column or directly dialyzed in PBS and used in experiments. The resulting supernatant was also termed “neat” supernatant.
The PD-1-Fc-OX40L chimeric protein harbors the extracellular domain of PD-1 protein domain at or near the N-terminus and the extracellular domain of OX40 Ligand (OX40L) protein domain at or near the C-terminus. To understand whether the extracellular domains of PD-1 and OX40L can simultaneously bind to respective antibodies, an anti-human PD-1 antibody was coated on a plate. Three-fold serial dilutions neat culture supernatants of Jurkat parental cells or Jurkat/hPD-1-Fc-OX40L cells were added to the plate. […] The plate was incubated to allow capture of any protein by the plate-bound anti-human PD-1 antibody. […] Binding was detected using the MSD platform.

Assay [2] has as its target T1, human PD-L1 (human, UniProt Q9NZQ7 19-290).
T1 construct: whole, on cells; also called hPD-L1; PD-L1 on CHO-K1/hPD-L1 cells
The experiment in a line: flow cytometry binding to CHOK1/hPDL1 cells; supernatant as % of total reaction volume. The protocol:
(§1) In another experiment, the CHO-K1/hPD-L1 cells were incubated with increasing amounts of the neat culture supernatant of the Jurkat parental or Jurkat/hPD-1-Fc-OX40L cells produced as discussed in Example 2. Binding was detected using flow cytometry and the MFI was calculated and plotted as a function of the amount of the neat culture supernatant of Jurkat parental or Jurkat/hPD-1-Fc-OX40L cells. […] Further, the CHO-K1/hOX40 cells were incubated with increasing amounts of the neat culture supernatant of the Jurkat parental or Jurkat/hPD-1-Fc-OX40L cells produced as discussed in Example 2. Binding was detected using flow cytometry and the MFI was calculated and plotted as a function of the amount of the neat culture supernatant of Jurkat parental or Jurkat/hPD-1-Fc-OX40L cells.
Background: Flow cytometry measures light scatter and fluorescence of single cells or particles in a stream.

Assay [3] has as its target T2, universal-heterologous chimeric protein specific anti-Fc antibody. The experiment in a line: sandwich ELISA: capture by anti-Fc antibody, detection by biotinylated anti-human OX40L antibody; concentrated culture media, the protein concentration in it is not given so the x values are nominal; the fitted value lies beyond the highest point shown (log about 2.8), nM is from the x axis. (In an ELISA, binding on a coated surface is turned into a signal by an enzyme label.)

The target of assay [4] is T3, human OX40 (human, UniProt P43489 29-277).
T3 construct: whole, on cells; also called hOX40; OX40 on CHO-K1/hOX40 cells
T3 sequence (looked up): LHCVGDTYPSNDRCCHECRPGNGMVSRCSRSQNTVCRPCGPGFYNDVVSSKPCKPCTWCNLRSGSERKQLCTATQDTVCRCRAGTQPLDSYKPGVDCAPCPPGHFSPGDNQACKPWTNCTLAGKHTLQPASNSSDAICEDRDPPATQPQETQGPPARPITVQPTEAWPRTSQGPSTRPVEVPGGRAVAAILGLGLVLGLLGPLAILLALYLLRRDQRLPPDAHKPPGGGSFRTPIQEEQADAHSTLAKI
The experiment in a line: flow cytometry binding to CHOK1/hOX40 cells; supernatant as % of total reaction volume. The protocol:
as §1

Assay [5] has as its target T2, universal-heterologous chimeric protein …. The assay is described as follows: sandwich ELISA: capture by anti-Fc antibody, detection by biotinylated anti-human OX40L antibody; Abs450nm against log[Agonist], nM, nM is from the x axis.

T1 sequence (Q9NZQ7 19-290): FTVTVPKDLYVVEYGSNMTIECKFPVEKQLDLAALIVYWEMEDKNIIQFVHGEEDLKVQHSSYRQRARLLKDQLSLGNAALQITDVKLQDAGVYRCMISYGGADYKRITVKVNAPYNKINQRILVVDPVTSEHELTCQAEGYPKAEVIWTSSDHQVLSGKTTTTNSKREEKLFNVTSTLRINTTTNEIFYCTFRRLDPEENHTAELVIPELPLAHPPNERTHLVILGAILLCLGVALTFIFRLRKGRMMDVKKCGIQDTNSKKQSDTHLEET

B1: human PD-1-Fc-OX40L heterologous chimeric protein (Fc fusion)
chain: LDSPDRPWNPPTFSPALLVVTEGDNATFTCSFSNTSESFVLNWYRMSPSNQTDKLAAFPEDRSQPGQDCRFRVTQLPNGRDFHMSVVRARRNDSGTYLCGAISLAPKAQIKESLRAELRVTERRAEVPTAHPSPSPRPAGQFQSKYGPPCPPCPAPEFLGGPSVFLFPPKPKDQLMISRTPEVTCVVVDVSQEDPEVQFNWYVDGVEVHNAKTKPREEQFNSTYRVVSVLTVLHQDWLSGKEYKCKVSSKGLPSSIEKTISNATGQPREPQVYTLPPSQEEMTKNQVSLTCLVKGFYPSDIAVEWESNGQPENNYKTTPPVLDSDGSFFLYSRLTVDKSRWQEGNVFSCSVLHEALHNHYTQKSLSLSLGKIEGRMDQVSHRYPRIQSIKVQFTEYKKEKGFILTSQKEDEIMKVQNNSVIINCDGFYLISLKGYFSQEVNISLHYQKDEEPLFQLKKVRSVNSLMVASLTYKDKVYLNVTTDNTSLDDFHVNGGELILIHQNPGEFCVL
notes: Tested as secreted protein in Jurkat supernatant and as purified protein; also called hPD-1-Fc-OX40L; hPD1-Fc-OX40L
As to B1, the EC50 (read off the curve) (in general, the concentration at which the effect is half-maximal) in assay [1] is roughly 0.08 µg/mL. Further, the binding result in assay [2] and in assay [4] was “binds” each time. Besides, the results for the EC50 in assay [3] and in assay [5] were 2690 nM and 37.3 nM, respectively.
